Measured values published in patent publication US20250332297A1, “DLL3-SPECIFIC BINDING CONSTRUCTS AND THEIR USE IN RADIOTHERAPY” (MOLECULAR PARTNERS AG, priority 2024, published 2025).

How the values were obtained:
human DLL3 = target: T1, human DLL3 (Homo sapiens, UniProt Q9NYJ7); assay: SPR multi-trace analysis, binding to human DLL3 (Example 1); settings: immobilized bio-DLL3 (hDLL3 ECD), PBS pH 7.4, 1:1 Langmuir, Table 1
T1 construct: (Q9NYJ7, Gene ID: 10683, residues 27 to 466; purchased from Evitria); 3C protease recognition site (C); Fc knob into hole (C); purchased Evitria
T1 sequence (Q9NYJ7 27-466): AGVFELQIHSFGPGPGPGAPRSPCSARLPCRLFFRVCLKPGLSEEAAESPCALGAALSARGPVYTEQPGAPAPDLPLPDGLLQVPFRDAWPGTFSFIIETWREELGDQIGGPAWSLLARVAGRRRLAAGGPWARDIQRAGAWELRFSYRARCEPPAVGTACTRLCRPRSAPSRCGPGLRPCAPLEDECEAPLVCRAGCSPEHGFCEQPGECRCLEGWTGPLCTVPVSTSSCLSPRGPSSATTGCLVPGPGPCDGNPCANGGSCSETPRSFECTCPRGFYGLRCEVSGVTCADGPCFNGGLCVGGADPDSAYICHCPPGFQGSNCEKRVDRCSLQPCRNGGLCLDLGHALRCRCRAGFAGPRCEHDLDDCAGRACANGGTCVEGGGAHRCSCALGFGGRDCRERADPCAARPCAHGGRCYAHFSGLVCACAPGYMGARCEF
Method: Kinetic binding parameters and binding affinities of two domain (2D) ankyrin repeat proteins comprising an ankyrin repeat domain with binding specificity for DLL3 and an ankyrin repeat domain with binding specificity for serum albumin were determined by surface plasmon resonance (SPR) multi-trace analysis.
In brief, a SPR assay was used to determine the binding kinetics to the target human DLL3. The data were generated using BioRad ProteOn instrument in SPR running buffer (PBS, pH 7.4 containing 0.005% Tween 20®). […] The chip was coated with biotinylated target (bio-DLL3) to reach a signal intensity of 1780 RU. All analytes (3-fold dilution ranging from 300-33.3 nM) were injected in succession for 240 s (100 μl/min) and dissociation was recorded for 10800 s (100 μl/min). Each injection was followed by a regeneration step with 16 mM H3PO4 for 18 s. […] The bio-DLL3 target used was as described in U.S. 63/550,951, i.e. the extracellular domain (ECD) of human DLL3 protein (Q9NYJ7, Gene ID: 10683, residues 27 to 466; purchased from Evitria) linked via an Avi-tag (for site-directed biotinylation), followed by a 3C protease recognition site, to a Fc knob into hole (hDLL3 ECD-Avi-Fckih).

mouse serum albumin = target: T2, mouse serum albumin (Mus musculus, UniProt P07724); assay: SPR binding to mouse serum albumin (Example 1); settings: immobilized MSA, 1:1 Langmuir, Table 2
T2 construct: purchased Sigma-Aldrich
Method: Similarly, a SPR assay was used to determine the binding kinetics to human or mouse serum albumin. […] All analytes (3-fold dilution ranging from 1000-12.35 nM) were injected in succession for 240 s (25 μl/min) and dissociation was recorded for 600 s (25 μl/min). […] The obtained SPR traces were used to determine the ankyrin repeat protein-serum albumin interaction parameters, summarized in Table 2.

hDLL3-MC38 tumor model = assay: Biodistribution of radio-labelled DARPin conjugates in hDLL3-MC38 tumor model; format: in vivo, mouse; settings: Pb-212 DOTAM conjugate 0.01 mg/kg (10 μCi) i.v., athymic nude mice, s.c. hDLL3-MC38
From the text: hDLL3-MC38 tumor model. ATH mice were purchased from Envigo. General handling and maintenance of mice was done as described above for the NCI-H82 tumor model. hDLL3-MC38 cells were purchased from Biocytogen (Catalog No. 311448). […] Cells were quantified using Countess cell counter.
Biodistribution study. […] Based on immunohistochemistry analyses, the hDLL3-MC38 tumors have a higher level of human DLL3 expression than the NCI-H82 tumors described in Example 3 (data not shown). Biodistribution was monitored at 1 h, 4 h and 24h post-injection. Mice were euthanized by CO2 inhalation and cervical dislocation.
Mice were euthanized by CO2 inhalation and cervical dislocation.

T2 sequence (P07724 25-608): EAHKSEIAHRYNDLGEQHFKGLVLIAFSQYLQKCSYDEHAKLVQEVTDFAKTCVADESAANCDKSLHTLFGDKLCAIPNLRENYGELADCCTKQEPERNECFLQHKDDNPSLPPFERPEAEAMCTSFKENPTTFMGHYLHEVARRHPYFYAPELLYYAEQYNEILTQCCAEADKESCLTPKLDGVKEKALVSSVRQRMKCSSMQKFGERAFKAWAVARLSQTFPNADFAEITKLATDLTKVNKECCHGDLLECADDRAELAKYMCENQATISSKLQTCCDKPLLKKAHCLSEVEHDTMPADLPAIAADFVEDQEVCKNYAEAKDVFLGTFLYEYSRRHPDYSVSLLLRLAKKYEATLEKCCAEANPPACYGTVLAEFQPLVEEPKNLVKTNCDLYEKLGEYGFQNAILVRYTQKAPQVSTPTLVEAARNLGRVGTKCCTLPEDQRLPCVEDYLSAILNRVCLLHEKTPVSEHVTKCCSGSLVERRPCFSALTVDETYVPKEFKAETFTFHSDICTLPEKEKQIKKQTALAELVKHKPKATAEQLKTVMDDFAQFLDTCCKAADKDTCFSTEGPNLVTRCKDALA

B1: MAM279: Two domain (2D) ankyrin repeat protein: serum albumin-specific domain (SEQ ID NO: 7), PT linker, DLL3-specific domain of MAM093 (protein)
chain: DLGKKLLEAARAGQDDEVRELLKAGADVNAKDYFSHTPLHLAARNGHLKIVEVLLKAGADVNAKDFAGKTPLHLAADAGHLEIVEVLLKAGADVNAQDIFGKTPADIAADAGHEDIAEVLQKAAGSPTPTPTTPTPTPTTPTPTPTGSDLGKKLLAAAAQGQDDEVRELLKAGANVNAKDLFGYTPLHLAAWRGHLEIVEVLLKAGADVNAKDAAGETPLHLAAWFGHLEIVEVLLKAGADVNAQDLQGKTPADLAAKEGHEDIAEVLQKAA
modifications: Ankyrin repeat protein (MAM279)
Human DLL3
  Kd: 0.616 nM
  koff: 1.44e-05 s⁻¹
  kon: 23300 M⁻¹ s⁻¹
Mouse serum albumin
  Kd: 367 nM
  Koff MSA: 0.0335 s⁻¹
  Kon MSA: 91240 M⁻¹ s⁻¹
hDLL3-MC38 tumor model; 4 h, Example 7
  Blood % ID/g: 21.2 % ID/g
  Kidneys % ID/g: 14.3 % ID/g
  Tumors % ID/g: 20.6 % ID/g
hDLL3-MC38 tumor model; 4 h, Example 9
  Blood % ID/g: 21 % ID/g
  Kidneys % ID/g: 14 % ID/g
  T:K ratio: 1.5
  Tumors % ID/g: 21 % ID/g
hDLL3-MC38 tumor model; 24 h, Example 7
  Blood % ID/g: 8.1 % ID/g
  Kidneys % ID/g: 23.3 % ID/g
  Tumors % ID/g: 57.6 % ID/g
hDLL3-MC38 tumor model; 24 h, Example 9
  Blood % ID/g: 8 % ID/g
  Kidneys % ID/g: 23 % ID/g
  T:K ratio: 2.5
  Tumors % ID/g: 58 % ID/g

B2: MAM283: Two domain (2D) ankyrin repeat protein: serum albumin-specific domain (SEQ ID NO: 7), PT linker, DLL3-specific domain (SEQ ID NO: 3) (protein)
chain: DLGKKLLEAARAGQDDEVRELLKAGADVNAKDYFSHTPLHLAARNGHLKIVEVLLKAGADVNAKDFAGKTPLHLAADAGHLEIVEVLLKAGADVNAQDIFGKTPADIAADAGHEDIAEVLQKAAGSPTPTPTTPTPTPTTPTPTPTGSDLGKKLLAAAADGQDDEVRELLQAGADVNAKDLFGYTPLHLAAWRGHLEIVEVLLEAGADVNAKDAAGETPLHLAAWFGHLEIVEVLLEAGADVNAQDVQGKTPADLAAKEGHEDIAEVLQQAA
modifications: Ankyrin repeat protein (MAM283)
Human DLL3
  Kd: 0.953 nM
  koff: 1.79e-05 s⁻¹
  kon: 18800 M⁻¹ s⁻¹
Mouse serum albumin
  Kd: 507 nM
  Koff MSA: 0.0378 s⁻¹
  Kon MSA: 74680 M⁻¹ s⁻¹
hDLL3-MC38 tumor model; 4 h, Example 7
  Blood % ID/g: 21.1 % ID/g
  Kidneys % ID/g: 16.9 % ID/g
  Tumors % ID/g: 22.5 % ID/g
hDLL3-MC38 tumor model; 24 h, Example 7
  Blood % ID/g: 0.8 % ID/g
  Kidneys % ID/g: 26.8 % ID/g
  Tumors % ID/g: 45.5 % ID/g

B3: MAM282: Two domain (2D) ankyrin repeat protein: serum albumin-specific domain (SEQ ID NO: 7), PT linker, DLL3-specific domain (SEQ ID NO: 2) (protein)
chain: DLGKKLLEAARAGQDDEVRELLKAGADVNAKDYFSHTPLHLAARNGHLKIVEVLLKAGADVNAKDFAGKTPLHLAADAGHLEIVEVLLKAGADVNAQDIFGKTPADIAADAGHEDIAEVLQKAAGSPTPTPTTPTPTPTTPTPTPTGSDLGKKLLAAAREGQDDEVRELLKAGADVNAKDIWGQTPLHIAAWFGHLEIVEVLLKAGADVNAKDQTGHTPLHLAAKFGHLEIVEVLLKAGADVNAQDLLGRTPADLAAEEGHEDIAEVLQKAA
modifications: Ankyrin repeat protein (MAM282)
Human DLL3
  Kd: 3.03 nM
  koff: 3.79e-05 s⁻¹
  kon: 12500 M⁻¹ s⁻¹
Mouse serum albumin
  Kd: 335 nM
  Koff MSA: 0.0354 s⁻¹
  Kon MSA: 105900 M⁻¹ s⁻¹
hDLL3-MC38 tumor model; 4 h, Example 8
  Blood % ID/g: 28.6 % ID/g
  Kidneys % ID/g: 19.4 % ID/g
  Tumors % ID/g: 21.4 % ID/g
hDLL3-MC38 tumor model; 24 h, Example 8
  Blood % ID/g: 9.9 % ID/g
  Kidneys % ID/g: 27.9 % ID/g
  Tumors % ID/g: 51.9 % ID/g

B4: MAM279 conjugate: SEQ ID NO: 15 conjugated to DOTAM-maleimide, labelled with Pb-212 (natural lead in PK studies) (conjugate)
chain: GSDLGKKLLEAARAGQDDEVRELLKAGADVNAKDYFSHTPLHLAARNGHLKIVEVLLKAGADVNAKDFAGKTPLHLAADAGHLEIVEVLLKAGADVNAQDIFGKTPADIAADAGHEDIAEVLQKAAGSPTPTPTTPTPTPTTPTPTPTGSDLGKKLLAAAAQGQDDEVRELLKAGANVNAKDLFGYTPLHLAAWRGHLEIVEVLLKAGADVNAKDAAGETPLHLAAWFGHLEIVEVLLKAGADVNAQDLQGKTPADLAAKEGHEDIAEVLQKAAGSGSC
modifications: DOTAM-maleimide, Pb-212 label; Ankyrin repeat protein with tag (GS-MAM279-tag)
hDLL3-MC38 tumor model; 24 h, Example 9
  T:K ratio: above 1
